T1: recombinant human LAG3 expressed with a C-terminal mouse IgG2a mFc tag (human)
T1 construct: Called dimeric; also called hLAG3-mFc; hLAG3 dimer
T1 chain: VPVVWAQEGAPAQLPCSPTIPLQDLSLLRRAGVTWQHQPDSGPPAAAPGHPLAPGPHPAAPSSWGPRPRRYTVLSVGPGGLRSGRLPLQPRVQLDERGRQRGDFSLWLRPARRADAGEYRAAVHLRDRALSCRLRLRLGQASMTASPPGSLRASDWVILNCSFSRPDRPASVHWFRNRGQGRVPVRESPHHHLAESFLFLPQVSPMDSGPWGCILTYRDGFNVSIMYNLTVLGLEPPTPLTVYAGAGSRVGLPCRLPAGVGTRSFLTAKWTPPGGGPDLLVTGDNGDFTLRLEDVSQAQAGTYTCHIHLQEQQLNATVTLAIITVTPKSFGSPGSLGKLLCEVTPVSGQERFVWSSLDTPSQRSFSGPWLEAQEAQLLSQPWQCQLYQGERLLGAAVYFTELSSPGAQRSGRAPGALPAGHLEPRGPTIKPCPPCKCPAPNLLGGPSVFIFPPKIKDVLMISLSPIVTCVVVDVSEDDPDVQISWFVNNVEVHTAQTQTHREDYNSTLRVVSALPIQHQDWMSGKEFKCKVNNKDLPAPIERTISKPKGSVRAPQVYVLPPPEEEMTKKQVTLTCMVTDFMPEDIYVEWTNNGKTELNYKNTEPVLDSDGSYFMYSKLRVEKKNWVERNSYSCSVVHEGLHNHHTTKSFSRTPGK

T2: human LAG3 expressed on HEK293 cells (human, UniProt P18627 23-525)
T2 construct: also called hLAG3; HEK293/hLAG3
T2 sequence: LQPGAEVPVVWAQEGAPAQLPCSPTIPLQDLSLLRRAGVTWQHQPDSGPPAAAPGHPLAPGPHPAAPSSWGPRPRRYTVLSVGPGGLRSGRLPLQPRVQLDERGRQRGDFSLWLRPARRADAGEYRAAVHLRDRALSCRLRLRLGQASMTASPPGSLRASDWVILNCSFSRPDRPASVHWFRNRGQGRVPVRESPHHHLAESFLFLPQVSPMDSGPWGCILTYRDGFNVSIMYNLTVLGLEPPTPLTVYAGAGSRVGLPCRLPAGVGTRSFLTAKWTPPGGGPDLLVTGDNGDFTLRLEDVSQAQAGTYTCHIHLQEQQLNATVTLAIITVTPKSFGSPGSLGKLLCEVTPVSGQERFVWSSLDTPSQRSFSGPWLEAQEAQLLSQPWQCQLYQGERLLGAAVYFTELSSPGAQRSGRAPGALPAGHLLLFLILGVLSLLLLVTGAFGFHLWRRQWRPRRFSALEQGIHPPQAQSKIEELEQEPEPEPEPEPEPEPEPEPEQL


How the values were obtained:
[1] = target: T3, recombinant human LAG3 expressed with a C-terminal myc-myc-hexahistidine tag (human, UniProt P18627 29-450); assay: SPR, mAb captured, 25 C
T3 construct: also called hLAG3-mmh; hLAG3.mmh
Experimental: (§1) The BiaCore sensor surface was derivatized with either a polyclonal rabbit anti-mouse antibody (GE, # BR-1008-38) or with a monoclonal mouse anti-human Fc antibody (GE, # BR-1008-39) to capture approximately 50-85 RUs of anti-LAG3 monoclonal antibodies, expressed with either a mouse Fc or a human Fc, respectively. […] The binding of the LAG3 reagents to captured monoclonal antibodies was monitored for 4 minutes while their dissociation from the antibodies was monitored for 8 minutes in HBST running buffer (0.01 M HEPES pH 7.4, 0.15 M NaCl, 3 mM EDTA, 0.05% v/v Surfactant P20). Experiments were performed at 25° C. and 37° C. Kinetic association (kₐ) and dissociation (kd) rate constants were determined by processing and fitting the data to a 1:1 binding model using Scrubber 2.0c curve fitting software. Binding dissociation equilibrium constants (KD) and dissociative half-lives (t_{1/2}) were then calculated from the kinetic rate constants as: KD (M)=kd/kₐ and t_{1/2} (min)=[ln2/(60*kd)].

[2] = target: T1, recombinant human LAG3 expressed with a …; assay: SPR, mAb captured, 25 C
Experimental: as §1

[3] = target: T2, human LAG3 expressed on HEK293 cells; assay: cell adherence assay, blocks RAJI (human MHCII) cells on HEK293-hLAG3
Experimental: Cells were plated into sterile Nunclon™ Delta 96-Well MicroWell™ Black Optical Bottom Plates (Thermo Scientific). The wells from the perimeter of the plate were not included in the assay design to avoid edge effects.
On the day of treatment, all antibodies were serially (1:3) diluted in RPMI media (without FBS or supplements added). The 9-point dilution ranged between 45 pM to 300 nM, with the last dilution point containing no mAb. […] While the plated HEK293-LAG3 cells were incubating with the test or control antibodies, non-adherent B-cells (RAJI or A20) were labeled with Calcein AM using the following procedure. RAJI and A20 suspension cells were harvested and centrifuged at 1,200 rpm for 5 minutes. Cell pellets were resuspended in 1×PBS and counted. Cells were washed with RPMI, and resuspended in RPMI at a concentration of 10⁶ cells per 1 ml. Cells were labeled by adding 5 μL of Calcein AM per 1 ml of cell suspension and incubated for 30 min at 37° C., at 5% CO₂. […] Subsequently, 10 μL of BD Pharmingen Fc Block (0.5 mg/mL) was added per 1 ml of the Calcein AM labeled cells, which were incubated at RT for 10 minutes. The Calcein AM-stained, Fc-blocked RAJI or A20 cells were resuspended in RPMI to a final concentration of 3×10⁶ cells per 1 ml and subsequently used in the adherence assay.
The labeled suspension cells were incubated with the HEK293 monolayer for 1 hour at 37° C., at 5% CO₂.

| Binder | Kd [1] [nM] | koff [1] [s⁻¹] | kon [1] [M⁻¹ s⁻¹] | t1/2 [1] [min] | Kd [2] [nM] | koff [2] [s⁻¹] | kon [2] [M⁻¹ s⁻¹] | t1/2 [2] [min] | IC50 [3] [nM] |
| --- | --- | --- | --- | --- | --- | --- | --- | --- | --- |
| H4sH15462P (antibody, V domains shown, H4sH = human IgG4 Fc with 2 or more amino acid changes as disclosed in US20140243504) VH: QVQLVQSGAEVKKPGASVKVSCKASGYTFTNYYIHWVRQAPGQGLDWMGIINPGGGNTNYAQKFLGRVTMTRDTSTTTVYMELSSLRSEDTAIYYCARENWNSYFDNWGQGTLVTVSS VL: not shown | 6.51 | 0.00697 | 1.07e+06 | 1.7 | 0.814 | 0.0019 | 2.34e+06 | 6.1 | 2.5 |
| H4H15462P (antibody, human IgG4, V domains shown, H4H = human IgG4 Fc with S108P hinge mutation) VH: QVQLVQSGAEVKKPGASVKVSCKASGYTFTNYYIHWVRQAPGQGLDWMGIINPGGGNTNYAQKFLGRVTMTRDTSTTTVYMELSSLRSEDTAIYYCARENWNSYFDNWGQGTLVTVSS VL: not shown | 5.75 | 0.0054 | 939000 | 2.1 | 1.01 | 0.00203 | 2.02e+06 | 5.7 | 3.2 |

These reach a lower Kd [1]. Values come first.

| Kd [1] [nM] | koff [1] [s⁻¹] | kon [1] [M⁻¹ s⁻¹] | t1/2 [1] [min] | Kd [2] [nM] | koff [2] [s⁻¹] | kon [2] [M⁻¹ s⁻¹] | t1/2 [2] [min] | IC50 [3] [nM] | Binder |
| --- | --- | --- | --- | --- | --- | --- | --- | --- | --- |
| 2.31 | 0.00141 | 612000 | 8.2 | 0.245 | 0.00046 | 1.88e+06 | 25.1 | 11 | H4H17828P2 (antibody, human IgG4, V domains shown, H4H = human IgG4 Fc with S108P hinge mutation) VH: EVQLVESGGGLVQPGGSLRLSCAASGFTFKTYAMSWVRQAPGRGLEWVSGISGSGSTSYYADSVKGRFTISRDNYKKTLSLQMNSLRAEDTAVYYCALDIMATVGGLFNNWGQGTLVTVSS VL: not shown |
| 0.0487 | 5.98e-05 | 1.23e+06 | 193 | ≤ 0.00328 | ≤ 1e-05 | 3.05e+06 | ≥ 1160 | 9.6 | H4sH15479P (antibody, V domains shown) VH: QVQLQQWGAGLLNPSETLSLTCAVYGGAFSDYYWNWIRQPPGKGLEWIGEINHRGSTNYNPSLKSRVTISVDTSKNQFSLRMSSVTAADAAVYYCARGEDYDIWNGYYQEKWGQGTLVTVSS VL: EIVLTQSPATLSLSPGERATLSCRASQSISTYLAWYQQKPGQAPRLLIYDASKRATGIPARFSGSGSGTDFTLTISSLEPEDFVVYYCHQRSNWPLTFGGGTKVEIK |
